Patent US6818617B1 (Temple University- Of The Commonwealth System of Higher …, priority 1997, dated 2004)
Entries after “also recorded” stand apart in the source; their conditions may differ. Where two headings read alike, the source gives them in different places.

Tests used:
α6β1 = target: T1, α6β1 (Homo sapiens, UniProt P05556+P23229); assay: K562 (α6+) cell adhesion to laminin; format: cell-based
T1 construct: expressed in transfected cells; host or cells: K562 transfected with α6
Procedure: (§1) Adhesion of cultured cells labeled with 5-chloromethylfluorescein diacetate (CMFDA) was performed as described earlier (Marcinkiewicz et al., Blood 90:1565-1575 (1997)). […] Wells were blocked by 1% BSA in HBSS buffer. Cells were labeled with fluorescein by incubation with 12.5 AM CMFDA in HBSS buffer containing 1% BSA at 37° C. by 15 min. Unbound label was removed by washing with the same buffer. Labeled cells (1×10^5 per sample) were added to the well in the presence or absence of inhibitors and incubated at 37° C. for 30 min. Unbound cells were removed by aspiration, the wells were washed and bound cells were lysed by adding 0.5% Triton X-100. In parallel the standard curve was prepared in the same plate from known concentrations of labelled cells. The plate was read using a Cytofluor 2350 fluorescence plate reader (Millipore, Bedford, Mass.) at 485 nm EX(excitation) filter and 530 nm (emmision) filter.
(§2) The effect of each peptide on cell adhesion was determined as described above. […] Cells that attached to the plates were lysed with detergent, and fluorescence intensity was measured. Percent inhibition was measured at each concentration and IC50 was determined.

α4β1 and α4β7 integrins = assay: Panel of α4 integrin cell adhesion assays; format: cell-based; settings: range over assays
Procedure: as §1, §2

α4β1 integrin [1] = target: T2, α4β1 integrin (UniProt G3HZ55+P13612); assay: HP2/1 antibody binding to α4B2 cells by flow cytometry; design: species or system human; settings: 60 nM EC3, 10 μg/ml HP 2/1, flow cytometry
T2 construct: expressed in transfected cells; host or cells: B2 CHO cells (α5-deficient), gift of Dr. Y. Takada
Procedure: (§3) Samples for flow cytometry analysis were prepared as described (Marcinkiewicz et al., Biochem. J. 371:118-124 (1996)), and analyzed in a Coulter Epics flow cytometer (Miami, Fla.).
(§4) The adhesion study was performed using CMFDA-labeled Jurkat cells in the absence or presence 1 mM GRGDSP or GRGESP, or 10 μg/ml HP 2/1. Competition between EC3 and HP2/1 was also confirmed in cell suspension using FACS analysis. […] The experiment was performed using flow cytometry. Jurkat cells (open bars) or B2-CHO cells (CHO cells with deleted α5 transfected with α4) (closed bars) were incubated with 10 μg/ml HP 2/1 in the absence (a) or presence 60 nM EC3 (b) for 30 min at room temperature. After washing, 10 μg/ml of FITC-conjugated goat anti-mouse IgG was added and samples were incubated for another 30 min at room temperature. The samples were fixed by addition of 1% paraformaldehyde before measurement of fluorescence intensity.

α4β7 [2] = target: T3, α4β7 (Homo sapiens, UniProt P13612+P26010); assay: RPMI 8866 cell adhesion to MadCAM-1; format: cell-based; design: endogenous in cells; host or cells: JY cells (A11); RPMI 8866 cells (A12); settings: RPMI 8866 cells, α4β7, ligand MadCAM-1
Procedure: as §1, §2

[3] = system: lymphocyte infiltration of pancreatic Langerhans islets; assay: Lymphocyte infiltration of Langerhans islets in Non Obese Diabetic (NOD) mice; format: in vivo, mouse
Procedure: Female NOD mice from […] of age were purchased from Jackson Laboratory (Bar Harbor, Me.).
After nine weeks of treatment the animals were sacrificed by exposure to CO2. The pancreas was removed, frozen, and stored at −70° C. until the histological analysis. For the histological analysis, five μm sections of frozen tissue were fixed with acetone. For detection of infiltrating lymphocytes, the sections were stained with hematoxylin/eosin, and observed by light microscopy.

α4 inactive G190A mutant = target: T4, α4 inactive G190A mutant (Homo sapiens, UniProt P13612, G223A); assay: Adhesion of CHO cells transfected with α4 G190A mutant to immobilized EC3; format: cell-based; settings: EC3 2 μg/well immobilized; adhesion identical with non transfected cells
T4 construct: expressed in transfected cells; host or cells: CHO, gift of Dr. Y. Takada
Procedure: as §1
EC3 (2 μg/well) and HP2/1 (1 μg/well) were immobilized on the 96well plate. The CHO cells were labeled with CMFDA and adhesion was performed as described above. […] Only A2 cells expressing wild type α4 adhered to immobilized HP2/1.

α4β1 integrin [4] = target: T5, α4β1 integrin (Homo sapiens, UniProt P05556+P13612); assay: HP2/1 antibody binding to Jurkat cells by flow cytometry; settings: 60 nM EC3, 10 μg/ml HP 2/1, flow cytometry
T5 construct: host or cells: Jurkat
Procedure: as §3, §4

α4β1 [5] = target: T6, α4β1 (Homo sapiens, UniProt P05556+P13612); assay: Jurkat cell adhesion to CS-1; format: cell-based; design: host or cells: Jurkat; settings: Jurkat cells, ligand CS-1
Procedure: as §1, §2

α4β1 [6] = target: T7, α4β1 (UniProt G3HZ55+P13612); assay: α4B2 (CHOα4+/α5−) cell adhesion to immobilized VCAM-1; format: cell-based, human; design: expressed in transfected cells; host or cells: B2 CHO cells (α5-deficient), gift of Dr. Y. Takada; settings: α4B2 (CHOα4+/α5−) cells, ligand VCAM-1
Procedure: as §1
Chinese hamster ovary cells transfected with human α4 integrin were provided by Dr. Y. Takada (Scripps Research Institute, La Jolla, Calif.). […] The bound cells were lysed with 0.5% Triton X-100, and fluorescence was measured.
as §2

α4β1 [7] = target: T6, α4β1; assay: Jurkat cell adhesion to immobilized VCAM-1; format: cell-based; design: host or cells: Jurkat
Procedure: as §1
The cell adhesion assay (as described in Example 1) was used to study the inhibitory effect of the eluted fractions on Jurkat cell adhesion to immobilized VCAM-1 and on K562 cell adhesion to fibronectin. […]
as §2

αIIbβ3 [8] = target: T8, αIIbβ3 (Homo sapiens, UniProt P05106+P08514); assay: ADP-induced platelet aggregation in platelet rich plasma (ADP PA); format: cell-based; design: endogenous in cells; host or cells: platelets in platelet rich plasma; settings: Platelets, αIIbβ3, ligand Fg, 30 μM ADP
Procedure: Blood from a healthy donor was collected into a syringe containing sodium citrate as an anticoagulant. The anticoagulated blood was centrifuged at 400 g for 17 minutes, and platelet rich plasma (PRP) was removed by aspiration.

α5β1 = target: T9, α5β1 (Homo sapiens, UniProt P05556+P08648); assay: K562 cell adhesion to immobilized fibronectin; format: cell-based; settings: 5 μg per sample of protein from fraction
T9 construct: host or cells: K562
Procedure: as §1

αvβ3 = target: T10, αvβ3 (Homo sapiens, UniProt P05106+P06756); assay: VNRC3 (CHOαvβ3+) cell adhesion to immobilized vitronectin; format: cell-based
T10 construct: expressed in transfected cells; host or cells: CHO (VNRC3 cells), gift of Dr. M. Ginsberg
Procedure: as §1, §2

α4β1 [9] = target: T6, α4β1; settings: read-out: IC50, direct binding assay; Jurkat cells, α4β1, VCAM-Ig
Procedure: (§5) The direct binding assay (DBA) with VCAM-11 g alkaline phosphatase conjugate was performed using Jurkat (α4β1 expressing) and JY (α4β7 expressing) cells according to procedure described in Lobb et al, Cell Adhes. Commun. 3:385-398 (1995)).

α4β7 [10] = target: T3, α4β7; settings: read-out: IC50, direct binding assay; JY cells, α4β7, VCAM-Ig
Procedure: as §5

αIIbβ3 [11] = target: T8, αIIbβ3; assay: A5 (CHOαIIbβ3+) cell adhesion to immobilized fibrinogen; format: cell-based; settings: A5 (CHOαIIbβ3+) cells, ligand Fg
Procedure: as §1, §2

α4β1 [12] = target: T7, α4β1; assay: A2 (CHOα4+) cell adhesion to immobilized VCAM-1; format: cell-based, human; design: expressed in transfected cells; host or cells: CHO (A2 cells, α4+ α5+), gift of Dr. Y. Takada; settings: A2 (CHOα4+) cells, ligand VCAM-1
Procedure: as §1, §2

T10 sequence (P06756 31-889 limits assumed): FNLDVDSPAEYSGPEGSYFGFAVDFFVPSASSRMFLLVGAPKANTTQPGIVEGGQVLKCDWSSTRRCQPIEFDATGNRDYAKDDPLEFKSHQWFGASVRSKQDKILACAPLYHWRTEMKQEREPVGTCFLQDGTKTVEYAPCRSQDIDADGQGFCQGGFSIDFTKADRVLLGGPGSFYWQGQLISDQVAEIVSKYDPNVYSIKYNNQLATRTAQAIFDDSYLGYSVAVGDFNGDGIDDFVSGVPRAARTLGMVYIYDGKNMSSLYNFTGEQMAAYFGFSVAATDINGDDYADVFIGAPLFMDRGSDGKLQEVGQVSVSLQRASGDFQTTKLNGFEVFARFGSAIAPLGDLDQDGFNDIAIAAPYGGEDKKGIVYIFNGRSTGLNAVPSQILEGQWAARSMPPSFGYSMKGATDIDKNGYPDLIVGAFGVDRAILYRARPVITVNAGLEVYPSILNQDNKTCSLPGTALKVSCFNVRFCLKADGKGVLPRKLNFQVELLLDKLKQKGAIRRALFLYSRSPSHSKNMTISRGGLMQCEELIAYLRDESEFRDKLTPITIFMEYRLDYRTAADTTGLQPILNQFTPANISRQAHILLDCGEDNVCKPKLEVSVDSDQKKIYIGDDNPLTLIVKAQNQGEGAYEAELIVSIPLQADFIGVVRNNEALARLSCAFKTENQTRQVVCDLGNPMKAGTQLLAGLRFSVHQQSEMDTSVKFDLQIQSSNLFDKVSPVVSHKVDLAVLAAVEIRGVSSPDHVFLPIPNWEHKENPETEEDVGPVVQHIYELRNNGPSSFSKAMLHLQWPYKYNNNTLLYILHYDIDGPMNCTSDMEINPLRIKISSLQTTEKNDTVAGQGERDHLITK
T10 sequence (P06756 891-1048 partner limits assumed): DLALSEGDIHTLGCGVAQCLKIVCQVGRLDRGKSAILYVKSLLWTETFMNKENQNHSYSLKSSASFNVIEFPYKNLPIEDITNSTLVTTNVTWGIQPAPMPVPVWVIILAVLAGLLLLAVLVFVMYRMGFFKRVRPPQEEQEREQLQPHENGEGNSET
T10 sequence (P05106 27-788): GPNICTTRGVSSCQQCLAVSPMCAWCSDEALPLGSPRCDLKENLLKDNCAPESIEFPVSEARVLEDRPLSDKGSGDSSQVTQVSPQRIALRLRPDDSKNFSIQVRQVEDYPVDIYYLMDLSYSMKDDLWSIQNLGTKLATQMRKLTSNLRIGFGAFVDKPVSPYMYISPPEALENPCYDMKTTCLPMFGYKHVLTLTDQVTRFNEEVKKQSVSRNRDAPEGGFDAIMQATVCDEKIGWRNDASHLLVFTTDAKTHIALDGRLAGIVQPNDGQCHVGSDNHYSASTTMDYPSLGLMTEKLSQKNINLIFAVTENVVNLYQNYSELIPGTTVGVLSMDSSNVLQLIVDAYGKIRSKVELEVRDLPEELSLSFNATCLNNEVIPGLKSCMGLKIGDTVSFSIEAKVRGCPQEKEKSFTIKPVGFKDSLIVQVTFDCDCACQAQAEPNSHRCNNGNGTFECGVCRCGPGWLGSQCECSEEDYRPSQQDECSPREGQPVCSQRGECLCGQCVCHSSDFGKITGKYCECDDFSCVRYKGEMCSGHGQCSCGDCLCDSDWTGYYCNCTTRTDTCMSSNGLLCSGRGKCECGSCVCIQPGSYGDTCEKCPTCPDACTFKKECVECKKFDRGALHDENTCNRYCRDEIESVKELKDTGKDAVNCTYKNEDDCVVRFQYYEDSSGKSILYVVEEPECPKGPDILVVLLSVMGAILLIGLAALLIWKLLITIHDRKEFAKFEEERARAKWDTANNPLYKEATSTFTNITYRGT
T1 sequence (P23229 24-938 limits assumed): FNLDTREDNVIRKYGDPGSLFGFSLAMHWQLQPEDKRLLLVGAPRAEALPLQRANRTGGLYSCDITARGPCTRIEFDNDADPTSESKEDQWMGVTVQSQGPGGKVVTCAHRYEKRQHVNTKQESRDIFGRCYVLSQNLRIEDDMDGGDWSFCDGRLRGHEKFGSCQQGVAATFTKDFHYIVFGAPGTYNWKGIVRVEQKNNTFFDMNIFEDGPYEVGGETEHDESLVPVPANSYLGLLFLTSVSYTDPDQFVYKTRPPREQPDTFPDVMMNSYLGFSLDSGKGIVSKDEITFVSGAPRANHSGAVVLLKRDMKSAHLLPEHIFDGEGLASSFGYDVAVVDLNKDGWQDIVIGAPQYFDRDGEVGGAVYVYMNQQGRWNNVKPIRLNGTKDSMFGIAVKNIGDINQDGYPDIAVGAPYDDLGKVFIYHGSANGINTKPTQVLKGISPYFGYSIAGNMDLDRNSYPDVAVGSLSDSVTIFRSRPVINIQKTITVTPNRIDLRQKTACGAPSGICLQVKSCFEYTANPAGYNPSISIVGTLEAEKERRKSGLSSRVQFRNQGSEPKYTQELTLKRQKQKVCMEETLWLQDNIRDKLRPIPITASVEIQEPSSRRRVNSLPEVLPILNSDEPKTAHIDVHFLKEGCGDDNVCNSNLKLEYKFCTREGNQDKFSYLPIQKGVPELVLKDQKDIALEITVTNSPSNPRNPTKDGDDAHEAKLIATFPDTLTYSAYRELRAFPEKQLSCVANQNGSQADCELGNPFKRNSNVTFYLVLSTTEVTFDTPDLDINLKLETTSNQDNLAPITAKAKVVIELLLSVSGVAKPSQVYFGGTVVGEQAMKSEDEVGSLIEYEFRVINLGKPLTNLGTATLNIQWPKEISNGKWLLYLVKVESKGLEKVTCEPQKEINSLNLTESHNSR
T1 sequence (P23229 942-1130 partner limits assumed): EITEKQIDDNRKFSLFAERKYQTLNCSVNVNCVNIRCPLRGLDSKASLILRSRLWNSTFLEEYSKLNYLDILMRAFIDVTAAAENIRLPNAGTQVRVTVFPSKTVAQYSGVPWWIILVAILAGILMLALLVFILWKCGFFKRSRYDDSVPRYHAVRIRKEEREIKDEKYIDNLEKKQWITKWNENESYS
T1 sequence (P05556 21-798): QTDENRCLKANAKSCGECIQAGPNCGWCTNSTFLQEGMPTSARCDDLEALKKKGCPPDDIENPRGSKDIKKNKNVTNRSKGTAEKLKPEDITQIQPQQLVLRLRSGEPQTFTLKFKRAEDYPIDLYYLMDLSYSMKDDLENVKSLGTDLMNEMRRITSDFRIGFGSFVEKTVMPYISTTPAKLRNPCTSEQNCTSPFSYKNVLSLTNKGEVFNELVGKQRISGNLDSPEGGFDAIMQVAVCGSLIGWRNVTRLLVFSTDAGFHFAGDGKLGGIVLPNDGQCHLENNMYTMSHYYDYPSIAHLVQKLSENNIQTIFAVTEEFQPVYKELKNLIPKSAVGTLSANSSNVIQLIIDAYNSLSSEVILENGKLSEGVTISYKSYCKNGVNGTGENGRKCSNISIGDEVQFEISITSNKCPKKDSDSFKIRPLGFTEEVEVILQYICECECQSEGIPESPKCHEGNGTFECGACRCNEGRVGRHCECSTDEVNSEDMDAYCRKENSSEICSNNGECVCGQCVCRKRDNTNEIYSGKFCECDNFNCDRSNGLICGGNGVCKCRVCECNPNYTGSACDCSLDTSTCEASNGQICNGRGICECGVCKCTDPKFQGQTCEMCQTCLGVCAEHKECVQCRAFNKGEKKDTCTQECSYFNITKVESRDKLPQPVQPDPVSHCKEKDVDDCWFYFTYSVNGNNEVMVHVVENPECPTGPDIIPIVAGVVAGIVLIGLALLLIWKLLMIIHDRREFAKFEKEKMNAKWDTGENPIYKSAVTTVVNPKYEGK
T9 sequence (P08648 42-894 limits assumed): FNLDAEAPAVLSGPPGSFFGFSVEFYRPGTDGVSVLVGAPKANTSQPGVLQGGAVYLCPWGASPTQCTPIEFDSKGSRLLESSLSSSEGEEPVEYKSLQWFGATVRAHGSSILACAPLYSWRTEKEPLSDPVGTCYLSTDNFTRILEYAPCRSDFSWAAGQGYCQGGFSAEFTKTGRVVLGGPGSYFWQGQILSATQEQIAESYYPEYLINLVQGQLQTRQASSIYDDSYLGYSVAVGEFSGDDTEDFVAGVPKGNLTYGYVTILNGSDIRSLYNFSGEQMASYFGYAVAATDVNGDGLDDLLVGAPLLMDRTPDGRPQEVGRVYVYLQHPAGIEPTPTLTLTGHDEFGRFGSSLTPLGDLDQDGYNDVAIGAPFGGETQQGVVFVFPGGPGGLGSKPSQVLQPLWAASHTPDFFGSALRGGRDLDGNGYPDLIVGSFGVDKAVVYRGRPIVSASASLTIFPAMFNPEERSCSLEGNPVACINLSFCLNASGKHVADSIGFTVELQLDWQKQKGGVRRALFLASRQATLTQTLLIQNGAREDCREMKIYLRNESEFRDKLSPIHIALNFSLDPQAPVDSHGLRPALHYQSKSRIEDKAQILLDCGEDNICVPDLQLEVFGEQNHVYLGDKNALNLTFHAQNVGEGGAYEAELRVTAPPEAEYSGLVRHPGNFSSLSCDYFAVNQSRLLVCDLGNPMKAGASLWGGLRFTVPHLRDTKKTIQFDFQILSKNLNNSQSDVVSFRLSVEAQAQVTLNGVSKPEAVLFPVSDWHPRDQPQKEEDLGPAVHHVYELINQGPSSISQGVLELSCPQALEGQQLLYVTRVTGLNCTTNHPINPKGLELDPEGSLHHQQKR
T9 sequence (P08648 895-1049 partner limits assumed): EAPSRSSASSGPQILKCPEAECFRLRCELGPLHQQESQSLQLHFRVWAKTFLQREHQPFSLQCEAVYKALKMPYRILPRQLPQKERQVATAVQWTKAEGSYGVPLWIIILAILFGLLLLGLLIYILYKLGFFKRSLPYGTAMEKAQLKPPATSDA
T9 sequence (P05556 21-798): as the sequence (P05556 21-798) above

B1: EC-3 (protein, listed as Echis carinatus)
chain 1: NSVHPCCDPVKCEPREGEHCISGPCCRNCYFLRAGTVCKRAVGDDVDDYCSGITPDCPRNRYKGKED
chain 2: NSVHPCCDPVKCEPREGEHCISGPCCRNCKFLNAGTICKRAMLDGLNDYCTGISTDCPRNRYKGKED
IC50 (α6β1; K562 (α6+) cells, α6β1, ligand Lm): > 10000 nM
inhibition of adhesion to laminin of K562 cells transfected with α6 (α6β1; at concentration 10 μM): neither echistatin nor EC3 inhibited
IC50 (α4β1 and α4β7 integrins; anchorage-dependent and anchorage-independent cells, read-out: concentration of highly potent inhibition of interaction of cells expressing α4β1 with VCAM-1 or CS-1): 20 to 300 nM
IC50 (α4β1 and α4β7 integrins; read-out: IC50, adhesion of cells expressing α4β1 and α4β7 integrins to VCAM-1 and MadCAM-1): 5 to 300 nM
inhibition of HP2/1 binding to α4B2 cells (α4β1 integrin [1]): inhibition of HP2/1 binding
IC50 (α4β7 [2]): 5 nM
Number of Islets, Infiltration Score ++ ([3]; ++ = ⅓ of the islet infiltrated, of 27 (echistatin) or 29 (EC-3) islets, nine weeks i.p.): 7
Number of Islets, Infiltration Score +++ ([3]; +++ = ½ or more of the islet infiltrated, of 27 (echistatin) or 29 (EC-3) islets, nine weeks i.p.): 0
Number of Animals without infiltration ([3]; NOD mice, i.p. three times per week for nine weeks, echistatin 1 μg/mouse, EC-3 3 μg/mouse, 10 animals per group): 2
effect on lymphocyte infiltration in pancreatic islets of NOD mice (in words) ([3]; echistatin 1 μg/mouse, EC-3 3 μg/mouse, i.p. three times per week, nine weeks): reduced levels of lymphocyte infiltration; also recorded: can block lymphocyte invasion; also recorded: reduced the level of lymphocyte infiltration
Number of Islets, Infiltration Score − ([3]; − = no infiltration, of 27 (echistatin) or 29 (EC-3) islets, nine weeks i.p.): 10
interaction of inactive G190A α4 mutant with immobilized EC3 (α4 inactive G190A mutant): did not interact
inhibition of HP2/1 binding to Jurkat cells (α4β1 integrin [4]): No inhibitory effect
IC50 (α4β1 [5]): 100 nM
IC50 (α4β1 [6]): 30 nM
inhibitory effect on Jurkat cell binding to immobilized VCAM-1 (α4β1 [7]; 5 μg per sample of protein from fraction): significant inhibitory effects
IC50 (α4β1 [7]; Jurkat cells, ligand VCAM-1, read-out: IC50, cell adhesion): 25 nM
IC50 (αIIbβ3 [8]): 1000 nM
inhibition of binding of K562 cells to immobilized fibronectin (α5β1): inhibited binding
IC50 (αvβ3; VNRC3 (CHOαvβ3+) cells, ligand Vn): > 10000 nM
inhibition of αvβ3-dependent adhesion (αvβ3; up to 10 μM): no inhibition
IC50 (α4β1 [9]): 28 nM
IC50 (α4β7 [10]): 6 nM
IC50 (αIIbβ3 [11]): 500 nM
IC50 (α4β1 [12]): 30 nM
